Biological target: Homo sapiens importin-β (Homo sapiens, UniProt Q14974 1-876)
Experiment: partitioning into phase-separated condensates

Chain of Homo sapiens importin-β (Q14974 whole entry): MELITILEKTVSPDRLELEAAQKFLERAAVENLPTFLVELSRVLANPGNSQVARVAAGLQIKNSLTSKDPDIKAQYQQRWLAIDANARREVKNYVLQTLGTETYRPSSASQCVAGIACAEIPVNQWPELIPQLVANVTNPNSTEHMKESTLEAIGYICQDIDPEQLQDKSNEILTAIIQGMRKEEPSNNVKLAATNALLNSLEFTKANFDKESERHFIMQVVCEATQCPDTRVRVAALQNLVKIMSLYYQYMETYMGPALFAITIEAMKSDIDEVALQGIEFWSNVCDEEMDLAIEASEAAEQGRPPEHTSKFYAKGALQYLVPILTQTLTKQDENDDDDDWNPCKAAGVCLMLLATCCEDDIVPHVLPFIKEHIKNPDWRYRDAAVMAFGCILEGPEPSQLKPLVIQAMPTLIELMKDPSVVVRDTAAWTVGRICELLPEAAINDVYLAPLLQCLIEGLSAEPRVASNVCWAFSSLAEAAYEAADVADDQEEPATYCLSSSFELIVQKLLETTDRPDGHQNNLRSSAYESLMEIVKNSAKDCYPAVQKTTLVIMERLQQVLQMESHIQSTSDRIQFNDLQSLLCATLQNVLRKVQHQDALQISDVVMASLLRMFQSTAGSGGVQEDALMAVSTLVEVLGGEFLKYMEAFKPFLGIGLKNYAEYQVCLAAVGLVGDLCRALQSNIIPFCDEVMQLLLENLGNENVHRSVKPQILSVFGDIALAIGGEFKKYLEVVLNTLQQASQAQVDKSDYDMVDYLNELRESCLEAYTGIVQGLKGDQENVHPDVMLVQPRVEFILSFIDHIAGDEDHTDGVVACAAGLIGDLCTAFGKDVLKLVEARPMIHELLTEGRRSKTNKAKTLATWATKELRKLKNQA

binding result: binds
B1: Homo sapiens NUP98 FG domain (residues 1-505, GLEBS domain residues 157-213 excluded) (domain or fragment, UniProt P52948 1-505, looked up)
chain: MFNKSFGTPFGGGTGGFGTTSTFGQNTGFGTTSGGAFGTSAFGSSNNTGGLFGNSQTKPGGLFGTSSFSQPATSTSTGFGFGTSTGTANTLFGTASTGTSLFSSQNNAFAQNKPTGFGNFGTSTSSGGLFGTTNTTSNPFGSTSGSLFGPSSFTAAGPQNQVGAGTTTGLFGSSPATSSATGLFSSSTTNSGFAYGQNKTAFGTSTTGFGTNPGGLFGQQNQQTTSLFSKPFGQATTTQNTGFSFGNTSTIGQPSTNTMGLFGVTQASQPGGLFGTATNTSTGTAFGTGTGLFGQTNTGFGAVGSTLFGNNKLTTFGSSTTSAPSFGTTSGGLFGNKPTLTLGTNTNTSNFGFGTNTSGNSIFGSKPAPGTLGTGLGAGFGTALGAGQASLFGNNQPKIGGPLGTGAFGAPGFNTTTATLGFGAPQAPVALTDPNASAAQQAVLQQHI
